# In patent US20170145113A1 (Genentech, published 2017):
# T1: LA-pep2
# T1 construct: The changed residue is printed as an image; A is put in by the column 'AA change' (R1A); also called R1A
# T1 peptide: AKLPFSKREVPV
# T2: LA-pep5
# T2 construct: The changed residue is printed as an image; A is put in by the column 'AA change' (F5A); also called F5A
# T2 peptide: RKLPASKREVPV
# T3: LA-pep3
# T3 construct: The changed residue is printed as an image; A is put in by the column 'AA change' (L3A); also called L3A
# T3 peptide: RKAPFSKREVPV
# T4: LA-pep6
# T4 construct: The changed residue is printed as an image; A is put in by the column 'AA change' (R8A); also called R8A
# T4 peptide: RKLPFSKAEVPV
# T5: LA-pep4
# T5 construct: The changed residue is printed as an image; A is put in by the column 'AA change' (P4A); also called P4A
# T5 peptide: RKLAFSKREVPV
# T6: LA-pep1, peptide corresponding to residues 190-201 of the human HtrA1 sequence (human)
# T6 construct: Synthetic peptide; numbering of the human HtrA1 precursor protein; also called LA-pepl; HtrA1 Loop A (LA) peptide
# T6 peptide: RKLPFSKREVPV
# Assays:
# LA-pep2 = molecular target: T1, LA-pep2; assay: SPR, peptide and Fab
# LA-pep5 = molecular target: T2, LA-pep5; assay: SPR, peptide and Fab
# LA-pep3 = molecular target: T3, LA-pep3; assay: SPR, peptide and Fab
# LA-pep6 = molecular target: T4, LA-pep6; assay: SPR, peptide and Fab
# LA-pep4 = molecular target: T5, LA-pep4; assay: SPR, peptide and Fab
# [1] = molecular target: T7, His-tagged human HtrA1 protease domain (human, UniProt Q92743 161-367); assay: BIACORE SPR analysis, Fab format
# T7 construct: His-tagged protease domain; also called huHtrA1-PD-His; huHtrA1-PD
# Method: To determine the binding affinity of selected Fab variants for HtrA1, SPR measurement with a BIACORE™ T200 instrument was performed. Briefly, a series S sensor chip CM5 was activated with 1-EDC and NHS reagents according to the supplier's instructions, and anti-His antibody was coupled to achieve 200-300 response units (RU), then following by blocking un-reacted groups with 1 M ethanolamine. For kinetics measurements, approximately 5 nM of huHtrA1-PD-His was first injected at 10 μl/min flow rate to capture approximately 100 RU at 2 different flow cells (FC), except for FC1 (which served as a reference). Next, 5-fold serial dilutions of Fab in HBS-P buffer (0.01M HEPES pH 7.4, 0.15M NaCl, 0.005% surfactant P20) from low (0.8 nM) to high (50 nM) were injected (flow rate: 30 μl/min). The binding responses on HtrA1 were corrected by subtracting of RU from a blank flow cell. The sensorgram was recorded and subject to reference and buffer subtraction before evaluating by BIACORE® T200 Evaluation Software (version 2.0). Association rates (kₒₙ) and dissociation rates (koff) were calculated using a simple one-to-one Langmuir binding model. The equilibrium dissociation constant (KD) was calculated as the ratio of koff/kₒₙ.
# [2] = molecular target: T7, His-tagged human HtrA1 protease domain; assay: cell-based or functional assay
# [3] = molecular target: T7, His-tagged human HtrA1 protease domain; assay: SPR (BIACORE), Fab
# [4] = molecular target: T6, LA-pep1, peptide corresponding to …; assay: SPR, peptide and Fab
# [5] = molecular target: T7, His-tagged human HtrA1 protease domain; assay: BIACORE T200 SPR; Fab analyte over huHtrA1-PD-His captured by anti-His antibody
# [6] = molecular target: T7, His-tagged human HtrA1 protease domain; assay: cell-based or functional assay; remark: listed apart in the source
# [7] = molecular target: endogenous HtrA1 from media of HtrA1-secreting human C32 melanoma cells (human, UniProt Q92743 23-480); assay: cell-based or functional assay
# Sequence of endogenous HtrA1 from media of HtrA1-secreting human C32 melanoma cells (Q92743 23-480 limits assumed): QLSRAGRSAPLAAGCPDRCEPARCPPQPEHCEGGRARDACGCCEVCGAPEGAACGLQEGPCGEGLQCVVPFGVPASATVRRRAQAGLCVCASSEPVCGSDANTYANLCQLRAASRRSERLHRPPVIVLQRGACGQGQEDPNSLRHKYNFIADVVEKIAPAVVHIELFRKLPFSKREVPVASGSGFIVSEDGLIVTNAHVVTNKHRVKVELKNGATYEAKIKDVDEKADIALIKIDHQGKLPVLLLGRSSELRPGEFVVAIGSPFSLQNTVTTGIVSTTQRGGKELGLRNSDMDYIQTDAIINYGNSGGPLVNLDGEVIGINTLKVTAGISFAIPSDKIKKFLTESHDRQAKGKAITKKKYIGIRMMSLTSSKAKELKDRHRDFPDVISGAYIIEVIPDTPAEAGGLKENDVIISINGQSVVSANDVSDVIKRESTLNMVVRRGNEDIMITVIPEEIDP
# T7 sequence (Q92743 other isoform, or with tags, fused parts or gaps limits assumed): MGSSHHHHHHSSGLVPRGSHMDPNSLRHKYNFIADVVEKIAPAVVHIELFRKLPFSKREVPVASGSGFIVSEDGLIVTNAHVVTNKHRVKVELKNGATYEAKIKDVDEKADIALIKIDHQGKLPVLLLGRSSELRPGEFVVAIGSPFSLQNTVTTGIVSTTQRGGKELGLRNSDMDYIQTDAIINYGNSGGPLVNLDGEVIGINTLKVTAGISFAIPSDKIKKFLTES
binder,measurement,setting,value
"h15H6.v4 Fab (Fab, V domains shown, Tested as Fab; also called APEG.LC3.HC3; Fab15H6.v4) VH: EVQLVQSGAEVKKPGASVKVSCKASGYKFTDSEMHWVRQAPGQGLEWIGGVDPETEGAAYNQKFKGRATITRDTSTSTAYLELSSLRSEDTAVYYCTRGYDYDYALDYWGQGTLVTVSS VL: DIQMTQSPSSLSASVGDRVTITCRASSSVEFIHWYQQKPGKAPKPLISATSNLASGVPSRFSGSGSGTDFTLTISSLQPEDFATYYCQQWSSAPWTFGQGTKVEIK",Kd,LA-pep2,321 nM
same,affinity loss (KD mutant/KD wild-type),LA-pep2,810 fold
same,Kd,LA-pep5,4.53 nM
same,affinity loss (KD mutant/KD wild-type),LA-pep5,11 fold
same,affinity loss (KD mutant/KD wild-type),LA-pep3,> 2500 fold
same,binding result,LA-pep3,no binding (tested: no binding detected up to 1 µM)
same,affinity loss (KD mutant/KD wild-type),LA-pep6,> 2500 fold
same,binding result,LA-pep6,no binding (tested: no binding detected up to 1 µM)
same,affinity loss (KD mutant/KD wild-type),LA-pep4,> 2500 fold
same,binding result,LA-pep4,no binding (tested: no binding detected up to 1 µM)
same,Kd,[1],0.106 nM
same,koff,[1],3.29e-05 s⁻¹
same,kon,[1],309000 M⁻¹ s⁻¹
same,IC50 FRET (H2-Opt substrate cleavage),[2],0.3 nM
same,IC90 FRET (H2-Opt substrate cleavage),[2],1.19 nM
same,Max inhibition (FRET H2-Opt assay),[2],100
same,fold improvement in affinity against YW505.94a.28 Fab,[3],~30 fold
same,Kd,[4],0.4 nM
same,Kd,[5],0.106 nM
same,koff,[5],3.29e-05 s⁻¹
same,kon,[5],309000 M⁻¹ s⁻¹
same,"IC50, FRET-based H2-Opt blocking assay",[6],~0.386 nM
same,"IC50, mass spectrometry-based activity assay (cleavage of intact α-casein)",[6],~45 nM
same,"IC50, endogenous HtrA1 activity assay (H2-Opt)",[7],~1.12 nM
